According to paper PMC12666658:

Legend:
[1] = molecular target: CD3 receptor on T cells (human PBMCs) (human (endogenous in PBMCs)) (UniProt P07766)
[2] = molecular target: CD3 receptor on T cells (human PBMCs) (human (endogenous in PBMCs)) (UniProt P07766); remark: listed apart in the source
[3] = molecular target: CD3 receptor on T cells (human PBMCs) (human (endogenous in PBMCs)) (UniProt P07766); remark: listed apart in the source

UniProt P07766, sequence (P07766 23-207): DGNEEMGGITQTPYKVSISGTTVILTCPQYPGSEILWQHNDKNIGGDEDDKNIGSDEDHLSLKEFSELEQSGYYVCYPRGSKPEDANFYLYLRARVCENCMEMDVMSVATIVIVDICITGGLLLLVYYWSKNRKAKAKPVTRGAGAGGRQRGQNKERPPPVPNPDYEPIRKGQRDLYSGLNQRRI

## SadP-scFv UCHT1 lectibody (from UniProt G5DSS1)
[1]
  fold increase of CD71 on CD3+ T cells (PBMCs co-cultured with Gb3+ Ramos cells), 5 or 10 nM lectibody, 24 and 48 hours; highest at 10 nM and 48 hours: 25 fold
[2]
  specific lysis of Gb3+ Ramos cells by PBMCs (E:T 5:1), bioluminescence-based cytotoxicity assay, 0.2–10 nM lectibody, 7 to 48 hours; highest at 10 nM and 48 hours: 65%
[3]
  fold increase of CD69 on CD3+ T cells (PBMCs co-cultured with Gb3+ Ramos cells), 5 or 10 nM lectibody, 18 and 24 hours; highest at 10 nM and 24 hours: 5 to 8 fold
